Numbering of substitutions follows the chain as printed.
T1: tumor necrosis factor receptor 2 (TNFR2) expressed on cells (human, UniProt P20333 23-461)
T1 construct: whole, on cells; also called human TNFR2; TNFRSF1B
T1 sequence (looked up): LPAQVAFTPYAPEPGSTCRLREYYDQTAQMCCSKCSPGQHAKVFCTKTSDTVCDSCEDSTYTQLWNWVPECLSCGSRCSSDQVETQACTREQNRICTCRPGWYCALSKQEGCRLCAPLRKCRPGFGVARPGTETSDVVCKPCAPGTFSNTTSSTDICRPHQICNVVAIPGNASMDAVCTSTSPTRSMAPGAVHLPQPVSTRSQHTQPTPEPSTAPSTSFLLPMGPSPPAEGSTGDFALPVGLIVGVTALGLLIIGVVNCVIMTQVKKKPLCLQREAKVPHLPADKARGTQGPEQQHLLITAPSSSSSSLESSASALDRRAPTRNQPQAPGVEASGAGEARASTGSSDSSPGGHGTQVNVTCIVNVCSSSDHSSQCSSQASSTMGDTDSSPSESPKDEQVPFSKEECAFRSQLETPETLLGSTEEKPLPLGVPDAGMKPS

T2: TNFR2 monomeric antigen (UniProt P20333 23-257, limits assumed)
T2 construct: extracellular domain
T2 sequence (looked up): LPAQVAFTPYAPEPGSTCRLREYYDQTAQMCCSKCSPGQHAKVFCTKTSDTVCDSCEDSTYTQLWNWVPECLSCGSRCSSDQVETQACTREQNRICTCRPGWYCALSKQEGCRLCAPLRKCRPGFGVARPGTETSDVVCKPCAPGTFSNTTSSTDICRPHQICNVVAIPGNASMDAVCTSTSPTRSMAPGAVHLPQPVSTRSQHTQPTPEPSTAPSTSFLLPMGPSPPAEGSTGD

B1: Bp96-92 epitope region-bridging biparatopic antibody (bispecific antibody, V domains shown)
VH 1: EVQLQQSGAELVKPGASVKLSCTPSGFNIKDTYMHWVKQRPEQGLEWIGRIDPANGYTEYDPKFQDKATITADTSSNTAYLQLSSLTSEDTAVYYCADTQLYYWGQGTTLTVSS
VL 1: QIVLTQSPAIMSASLGERVTMTCTASSSVSSTYLHWYQQKPGSSPKLWIYSTSNLASGVPARFSGSGSGTSYSLTISNMEAEDAATYYCHQYHRSPLTFGAGTKLELKR
VH 2: KVQLQQSGAELVKPGASVKLSCKASGYTFTESIIHWVKQRSGQGLEWIGWFYPGSDNINYNEKFKDKATLTADKSSSTVYMELTRLTSEDSAVYFCASHEGPYVYFDYWGQGTTLTVSS
VL 2: DIVMTQSHKFMSTSVGDRVSITCKASQDVSTAVAWYQQKPGQSPKLLIYWTSTRHTGVPDRFTGSGSGTDYTLTISSVQAEDLALYYCQHHYSTPYTFGGGTKLEIQR
notes: N side Fab joined by split-intein trans-splicing to hinge and hole Fc; C side VH-CH1-hinge-knob Fc plus light chain; Human IgG1 constant regions
B2: Bp109-45 epitope region-bridging biparatopic antibody (bispecific antibody, V domains shown)
VH 1: QVQLKESGPGLVAPSQSLSITCTVSGFSLTVYGVNWVRQPPGKGLEWLGMIWGDGSTAYNSALKSRLTITKDNSKTQVFLKMNSLQTDDTARYYCARDGRRYALDYWGQGTSVTVSS
VL 1: DIVLTQSPTSLAVSLGQRATISCRASESVDSYGDSFLHWYQQKPGQPPILLIYRASNLDSGIPARFSGSGSRTDFTLTINPVEADDVATYYCQQSNEDPYTFGGGTKLEINR
VH 2: EVQLQQSGPEMEKPGASVKISCKASGYSFTGYNMNWVKQSIGKSLEWIGKIDPYYGGTDYNLRFKDKATLTVDKSSSTAYMHLSRLTSEDSAVYYCAREPNYGSNDWYFDVWGAGTTVTVSS
VL 2: DIQVTQTTSSLSASLGDRVTISCRASQDIDNYLNWYQQRPDGTVKLLIYYTSILHSGVPSRFSGSGSRTDFSLTISSLEEEDFATYFCQQGNTLPWTFGGGTKLEFKR
notes: as for B1
B3: Bp109-94 epitope region-bridging biparatopic antibody (bispecific antibody, V domains shown)
VH 1: B2 VH 1
VL 1: B2 VL 1
VH 2: QVQLQQSGAELARPGTSVKLSCKASGYTFTSYWMQWVKQTPGQGLEWIGAIYPGDGDSRYIQKFKGKATLTADKSSSTAYMQLSSLASEDSAVYYCARDGNYYAMDYWGQGTSVTVSS
VL 2: B1 VL 1 with M21I, N78S, L97P
notes: as for B1
B4: Bp109-96 epitope region-bridging biparatopic antibody (bispecific antibody, V domains shown)
VH 1: B2 VH 1
VL 1: B2 VL 1
VH 2: B1 VH 1
VL 2: B1 VL 1
notes: as for B1
B5: Bp45-94 epitope region-bridging biparatopic antibody (bispecific antibody, V domains shown)
VH 1: B2 VH 2
VL 1: B2 VL 2
VH 2: B3 VH 2
VL 2: B1 VL 1 with M21I, N78S, L97P
notes: as for B1
B6: Bp45-92 epitope region-bridging biparatopic antibody (bispecific antibody, V domains shown)
VH 1: B2 VH 2
VL 1: B2 VL 2
VH 2: B1 VH 2
VL 2: B1 VL 2
notes: The N side Fab (VH-CH1 plus light chain) is joined by Cfa DnaE split-intein trans-splicing to the hinge and hole Fc; The C side is VH-CH1-hinge-knob Fc plus light chain; Human IgG1 constant regions

Each binder was assayed against T1, tumor necrosis factor receptor 2 … (assay: flow cytometry on TNFR2-expressing Ramos-Blue cells, anti-human IgG-PE).
Method: Subsequently, binding affinity of each antibody was evaluated using Ramos-Blue reporter cells expressing TNFR2. Each antibody was added at concentrations of 0.01, 0.1, 1, 10, 100, 1000, 10000, and 100000 ng/mL to the TNFR2-Ramos-Blue cells used in a reporter assay, and the cells were incubated for 1 hour on ice. After centrifugation for 5 minutes at 1200 rpm, the supernatant was removed. After washing once with a FACS buffer, anti-human IgG-PE was added to each well. The samples were left standing for 30 minutes away from light on ice. After centrifugation for 5 minutes at 1200 rpm, the supernatant was removed. After washing once with a FACS buffer, fluorescence was analyzed with a flow cytometer (FCM). The mean value of fluorescence intensity was used as a value corresponding to the amount of binding. Experiments were independently conducted twice under the same condition.

| Binder | binding result |
| --- | --- |
| B1 | binds |
| B2 | binds |
| B3 | binds |
| B4 | binds |
| B5 | binds |
| B6 | binds |

Each binder was assayed against T2, TNFR2 monomeric antigen (assay: SPR (BIAcore T200), antibody captured with human antibody capture kit, monomeric antigen as analyte).
Method: Binding kinetics analysis and evaluation of each antibody to a monomeric antigen and dimeric antigen were conducted through surface plasmon resonance (SPR) using BIAcore T200 system (GE Healthcare). Monomeric and dimeric antigens were prepared. The affinity of each antibody to the monomeric and dimeric antigens was evaluated to study the presence/absence of intramolecular bridging activity. The SPR technology is based on measuring the index of refraction near the surface of a gold coated biosensor chip. A change in the index of refraction indicates a change in mass on the surface due to an interaction between an immobilized antibody and a monomeric or dimeric antigen infused into the solution. The mass increases when a molecule binds to an antibody immobilized on the surface, whereas the mass decreases when an analyte dissociates from an immobilized antibody. Analysis of a biparatopic antibody and the original monoclonal antibody by SPR can not only evaluate the performance of each antibody, but also see the effect of multivalent bond.
The monomeric and dimeric antigens were prepared as shown in the schematic diagram of FIG. 8. First, an etanercept (Pfizer), which is an Fc fusion protein of a TNFR2 extracellular region, was prepared, and a TNFR2 antigen molecule was obtained by enzymatic degradation and reductive re-oxidation reaction. An antibody was immobilized on a sensor chip using a human antibody capture kit according to the protocol by using a BIAcore T200 system (GE Healthcare). The interaction was analyzed by using the two types of antigens described above as analytes.

| Binder | binding result |
| --- | --- |
| B1 | binds |
| B2 | binds |
| B3 | binds |
| B4 | binds |
| B5 | binds |
